Experiment [1] concerns the target NM, the N-terminal and middle region of Saccharomyces cerevisiae Sup35 (soluble, unpolymerized) (Saccharomyces cerevisiae) (UniProt P05453). In words: cell-based or functional assay.
Experiment [2] addresses Rnq1 preformed fibers (sonicated seed) (Saccharomyces cerevisiae) (UniProt P25367). Nature of the experiment: cell-based or functional assay.
In experiment [3] the target is biotinylated NM^K184C seed (fibers) (Saccharomyces cerevisiae) (UniProt P05453). Nature of the experiment: capture of biotinylated seed (50% w/w) on Streptavidin-coated Dynabeads, SDS wash, scintillation counting.
Sequence of biotinylated NM^K184C seed (fibers) (Saccharomyces cerevisiae) (P05453 1-253 K184C): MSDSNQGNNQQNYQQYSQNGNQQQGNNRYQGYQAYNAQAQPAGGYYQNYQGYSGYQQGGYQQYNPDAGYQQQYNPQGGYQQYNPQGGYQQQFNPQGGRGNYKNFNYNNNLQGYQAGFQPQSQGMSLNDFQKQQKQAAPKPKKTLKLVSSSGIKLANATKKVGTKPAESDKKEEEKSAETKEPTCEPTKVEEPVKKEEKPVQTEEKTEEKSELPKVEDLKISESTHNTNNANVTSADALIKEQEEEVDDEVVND

As for “Hsp104 (yeast protein-remodeling factor, AAA+ family), His-tag removed (from UniProt P31539 1-908) (enzyme)”, in experiment [1], the inhibition of NM fibrillization, no nucleotide stood at 7.6 µM; the inhibition of NM fibrillization, with ADP came out at 3.1 µM; the inhibition of NM fibrillization, with AMP-PNP was determined as 0.2 µM; the inhibition of NM fibrillization, with ATP hydrolysis is 0.1 µM.
“Rnq1 (purified recombinant, soluble) (from UniProt P25367 1-405)”: in experiment [2], the lag time of Thioflavin T fluorescence with 2% preformed fibers came out at 4.3 h.
As to “soluble NM^T158C-iodo[1-14C]acetamide (from UniProt P05453 1-253)”, in experiment [3], the fraction of seed-bound NM soluble in SDS at early time points was determined as 50%.

These data come from patent US20090280480A1.
